FireProtDB (doi:10.1021/bi052091o)
Where “and” joins values, the source holds several entries; their conditions need not be identical. Identical values can stand only once.

Conditions: Rattus norvegicus; pH 7; 25 °C; Urea; Fluorescence; NaPO4 25 mM; NaCl 75 mM; whole UniProt chain shown

B1: Fatty acid-binding protein, intestinal wild type, P02693 (protein)
chain: MAFDGTWKVDRNENYEKFMEKMGINVVKRKLGAHDNLKLTITQEGNKFTVKESSNFRNIDVVFELGVDFAYSLADGTELTGTWTMEGNKLVGKFKRVDNGKELIAVREISGNELIQTYTYEGVEAKRIFKKE
**Q.** What does the source list for B1?
**A.** denaturant m value: 0.83 kcal/mol/M and 0.74 kcal/mol/M; denaturant midpoint (higher = more stable): 4.61 M and 4.77 M; unfolding free energy: 3.82 kcal/mol and 3.54 kcal/mol
